Results taken from article PMC7583764.

Target: recombinant human PGRN (human) (UniProt P28799)
Chain of UniProt P28799 (P28799 18-593): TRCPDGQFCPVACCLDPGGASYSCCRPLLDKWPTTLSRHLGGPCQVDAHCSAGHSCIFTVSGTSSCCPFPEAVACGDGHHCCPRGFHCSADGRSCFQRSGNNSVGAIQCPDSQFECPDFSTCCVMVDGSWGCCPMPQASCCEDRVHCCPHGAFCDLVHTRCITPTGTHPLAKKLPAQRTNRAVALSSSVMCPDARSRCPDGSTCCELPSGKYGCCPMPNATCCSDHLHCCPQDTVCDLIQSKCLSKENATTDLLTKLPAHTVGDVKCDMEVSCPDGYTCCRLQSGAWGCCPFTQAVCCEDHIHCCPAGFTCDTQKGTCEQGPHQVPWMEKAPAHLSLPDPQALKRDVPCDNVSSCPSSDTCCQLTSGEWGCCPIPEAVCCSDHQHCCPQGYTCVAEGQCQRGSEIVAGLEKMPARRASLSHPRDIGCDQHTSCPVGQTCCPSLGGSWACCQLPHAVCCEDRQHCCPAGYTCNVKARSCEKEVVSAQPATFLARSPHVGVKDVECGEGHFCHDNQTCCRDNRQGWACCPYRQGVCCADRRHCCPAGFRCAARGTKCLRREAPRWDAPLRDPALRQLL

## recombinant human Flag-YB-1 (from UniProt P67809 1-324) (natural protein)
  inhibition of TNF-induced NF-κB luciferase reporter activity in transfected human embryonic kidney cells by combined stimulation with YB-1 and PGRN: 65%
